According to patent publication US20200109188A1 (AstraZeneca / MedImmune, published 2020):
Substitutions are numbered along the chain they refer to.

Tests used:
Assay in all cases: cell-based or functional assay
[1] = target: HA of ca A/Vietnam/1203/04 (H5N1) virus (influenza A virus)
[2] = target: HA of A/Wyoming/03/03 (H3N2) virus (influenza A virus)
[3] = target: HA of ca A/Perth/16/09 (H3N2) virus (influenza A virus)
[4] = target: HA of A/Hong Kong/8/68 (H3N2) virus (influenza A virus)
[5] = target: HA of ca A/Sydney/5/97 (H3N2) virus (influenza A virus)
[6] = target: HA of A/Wisconsin/67/05 (H3N2) virus (influenza A virus)
[7] = target: HA of ca A/Beijing/262/95 (H1N1) virus (influenza A virus)
[8] = target: HA of ca A/Hong Kong/213/03 (H5N1) virus (influenza A virus)
[9] = target: HA of A/Fort Monmouth/1/47 (H1N1) virus (influenza A virus)
[10] = target: HA of ca A/New Caledonia/20/99 (H1N1) virus (influenza A virus)
[11] = target: HA of ca A/teal/Hong Kong/W312/97 (H6N1) virus (influenza A virus)
[12] = target: HA of ca A/Brit. Columbia/CN-6/04 (H7N3-LP) virus (influenza A virus)
[13] = target: HA of A/Kawasaki/9/86 (H1N1) virus (influenza A virus)
[14] = target: HA of ca A/chicken/Hong Kong/G9/97 (H9N2) virus (influenza A virus)
[15] = target: HA of ca A/swine/Missouri/06 (H2N3) virus (influenza A virus)
[16] = target: HA of ca A/Texas/36/91 (H1N1) virus (influenza A virus)
[17] = target: HA of A/New Jersey/8/76 (H1N1) virus (influenza A virus)
[18] = target: HA of A/Victoria/3/75 (H3N2) virus (influenza A virus, UniProt P03435 17-567)
HA of A/Victoria/3/75 (H3N2) virus, sequence (P03435 17-567 limits assumed): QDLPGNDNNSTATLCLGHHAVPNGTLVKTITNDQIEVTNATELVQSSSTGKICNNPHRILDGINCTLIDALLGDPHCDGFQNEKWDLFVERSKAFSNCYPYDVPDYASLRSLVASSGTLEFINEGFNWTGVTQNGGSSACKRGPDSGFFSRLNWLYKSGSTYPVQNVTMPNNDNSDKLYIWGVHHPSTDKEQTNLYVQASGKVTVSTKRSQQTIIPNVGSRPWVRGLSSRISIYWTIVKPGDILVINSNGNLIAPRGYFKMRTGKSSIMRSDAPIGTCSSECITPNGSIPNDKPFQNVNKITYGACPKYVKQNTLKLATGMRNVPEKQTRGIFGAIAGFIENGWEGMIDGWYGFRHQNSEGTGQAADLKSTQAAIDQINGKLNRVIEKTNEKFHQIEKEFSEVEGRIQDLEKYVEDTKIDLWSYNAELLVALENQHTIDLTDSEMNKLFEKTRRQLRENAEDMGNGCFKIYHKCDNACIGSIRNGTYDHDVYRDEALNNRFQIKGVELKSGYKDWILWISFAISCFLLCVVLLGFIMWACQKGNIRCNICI

[19] = target: HA of H3-LA87 (A/Los Angeles/7/09 (H3N2)) virus (influenza A virus)
[20] = target: HA of ca A/Netherlands/219/03 (H7N7) virus (influenza A virus)
[21] = target: HA of ca A/Panama/2007/99 (H3N2) virus (influenza A virus)

B1: Antibody 8 (antibody, V domains shown)
VH: QVQLQQSGPGLVKPSQTLSLTCVISGDTVSSNRATWNWMRQSPLRGLEWLGRTYYRSKWYNDYAVSVKSRVVINPDTSKNQVSLQLNTVTPDDSGVYFCARGGHITVFGVNIDAFDIWGLGTKVTVSS
VL: DIQMTQSPSSLSASVGDRVTISCRASQRLNSYLHWYQQTPGQAPKLLIYATSTLQSGVSPRFSGSGSGTDFTLTISSLQPEDVATYYCQLSRTFGHGTKVEIK
- Neutralization IC50, H5-VM04 [1]: 3.9 µg/mL
- Neutralization IC50, H3-Wy03 [2]: > 50 µg/mL
- Neutralization IC50, H3-Perth09 [3]: > 50 µg/mL
- Neutralization IC50, H3-HK68 [4]: 2.82 µg/mL
- Neutralization IC50, H3-Syd97 [5]: > 50 µg/mL
- Neutralization IC50, H3-Wl05 [6]: > 50 µg/mL
- Neutralization IC50, H1-BJ95 [7]: 10.6 µg/mL
- Neutralization IC50, H5-HK03 [8]: 1.82 µg/mL
- Neutralization IC50, H1-FM47 [9]: 1.37 µg/mL
- Neutralization IC50, H1-Ncal99 [10]: 2.06 µg/mL
- Neutralization IC50, H6-HK97 [11]: 2.97 µg/mL
- Neutralization IC50, H7-BC04 [12]: 14.7 µg/mL
- Neutralization IC50, H1-Kaw86 [13]: 2.11 µg/mL
- Neutralization IC50, H9-HK97 [14]: 26.4 µg/mL
- Neutralization IC50, H2-MO06 [15]: 2.62 µg/mL
- Neutralization IC50, H1-TX91 [16]: 0.7 µg/mL
- Neutralization IC50, H1-NJ76 [17]: 2.26 µg/mL
- Neutralization IC50, H3-Vic75 [18]: 3.83 µg/mL
- Neutralization IC50, H3-LA87 [19]: > 50 µg/mL
- Neutralization IC50, H7-NLD03 [20]: 12.8 µg/mL
- Neutralization IC50, H3-Pa99 [21]: > 50 µg/mL

B2: Antibody 10 (antibody, V domains shown)
VH: QVQLQQSGPGLVKPSQTLSLTCAISGDSVSSNSATWNWIRQSPSRGLEWLGRTYYRSKWYNDYADFLKRRITINPDTSNNEVSLRLTSVTPDDTALYYCARGGHITVFGVNIDAFDVWGQGTMVTVSS
VL: DIQMTQSPSSLSASVGDRITISCRTSQSLRSYLHWYQQKPGKAPKLLIYASSTLQSGVPSRFSGSGSGTDFTLTISNLQPEDFATYYCQLSRTFGQGTKVEIK
- Neutralization IC50, H5-VM04 [1]: 2.21 µg/mL
- Neutralization IC50, H3-Wy03 [2]: 1.52 µg/mL
- Neutralization IC50, H3-Perth09 [3]: 2.56 µg/mL
- Neutralization IC50, H3-HK68 [4]: 0.85 µg/mL
- Neutralization IC50, H3-Syd97 [5]: 9.29 µg/mL
- Neutralization IC50, H3-Wl05 [6]: 4.46 µg/mL
- Neutralization IC50, H1-BJ95 [7]: 4.46 µg/mL
- Neutralization IC50, H5-HK03 [8]: 1.6 µg/mL
- Neutralization IC50, H1-FM47 [9]: 1.11 µg/mL
- Neutralization IC50, H1-Ncal99 [10]: 1.26 µg/mL
- Neutralization IC50, H6-HK97 [11]: 1.05 µg/mL
- Neutralization IC50, H7-BC04 [12]: 3.59 µg/mL
- Neutralization IC50, H1-Kaw86 [13]: 1.62 µg/mL
- Neutralization IC50, H9-HK97 [14]: 1.76 µg/mL
- Neutralization IC50, H2-MO06 [15]: 1.04 µg/mL
- Neutralization IC50, H1-TX91 [16]: 0.48 µg/mL
- Neutralization IC50, H1-NJ76 [17]: 0.15 µg/mL
- Neutralization IC50, H3-Vic75 [18]: 0.91 µg/mL
- Neutralization IC50, H3-LA87 [19]: 4.59 µg/mL
- Neutralization IC50, H7-NLD03 [20]: 3.8 µg/mL
- Neutralization IC50, H3-Pa99 [21]: 18.7 µg/mL

B3: Antibody 5 (antibody, V domains shown)
VH: QVQLQQSGPGLVKPSQTLSLTCAISGDRVSSNSAVWNWIRQSPSRGLEWLGRTYYRSKWYYDYAESVKSRIVIDPDTSKNQVSLQLNSVTPEDSAIYYCARGGHITVFGLNIDAYDIWGQGAMVTVSS
VL: DIQMTQSPSSLSASVGDRVTISCRAQSLSSYLHWYQQKPGQPPKLLIYAATTLQSGVPSRFSGSGSGTDFTLTISTFQAEDVATYYCQQSRTFGQGTKVEIK
- Neutralization IC50, H5-VM04 [1]: 2.6 µg/mL
- Neutralization IC50, H3-Wy03 [2]: 0.77 µg/mL
- Neutralization IC50, H3-Perth09 [3]: 2.22 µg/mL
- Neutralization IC50, H3-HK68 [4]: 0.39 µg/mL
- Neutralization IC50, H3-Syd97 [5]: 3.03 µg/mL
- Neutralization IC50, H3-Wl05 [6]: 2.83 µg/mL
- Neutralization IC50, H1-BJ95 [7]: 5.06 µg/mL
- Neutralization IC50, H5-HK03 [8]: 1.18 µg/mL
- Neutralization IC50, H1-FM47 [9]: 0.86 µg/mL
- Neutralization IC50, H1-Ncal99 [10]: 0.85 µg/mL
- Neutralization IC50, H6-HK97 [11]: 2.27 µg/mL
- Neutralization IC50, H7-BC04 [12]: 5.35 µg/mL
- Neutralization IC50, H1-Kaw86 [13]: 1.01 µg/mL
- Neutralization IC50, H9-HK97 [14]: 2.43 µg/mL
- Neutralization IC50, H2-MO06 [15]: 2.38 µg/mL
- Neutralization IC50, H1-TX91 [16]: 0.76 µg/mL
- Neutralization IC50, H1-NJ76 [17]: 1.64 µg/mL
- Neutralization IC50, H3-Vic75 [18]: 0.57 µg/mL
- Neutralization IC50, H3-LA87 [19]: 3.54 µg/mL
- Neutralization IC50, H7-NLD03 [20]: 4.14 µg/mL
- Neutralization IC50, H3-Pa99 [21]: 16.7 µg/mL

B4: Antibody 6 (antibody, V domains shown)
VH: B3 VH with V107E
VL: B3 VL
- Neutralization IC50, H5-VM04 [1]: 8.87 µg/mL
- Neutralization IC50, H3-Wy03 [2]: 4.7 µg/mL
- Neutralization IC50, H3-Perth09 [3]: 5.03 µg/mL
- Neutralization IC50, H3-HK68 [4]: 2.04 µg/mL
- Neutralization IC50, H3-Syd97 [5]: 6.54 µg/mL
- Neutralization IC50, H3-Wl05 [6]: 6.76 µg/mL
- Neutralization IC50, H1-BJ95 [7]: 20.9 µg/mL
- Neutralization IC50, H5-HK03 [8]: 10.4 µg/mL
- Neutralization IC50, H1-FM47 [9]: 3.04 µg/mL
- Neutralization IC50, H1-Ncal99 [10]: 3 µg/mL
- Neutralization IC50, H6-HK97 [11]: 3.23 µg/mL
- Neutralization IC50, H7-BC04 [12]: > 50 µg/mL
- Neutralization IC50, H1-Kaw86 [13]: 3.51 µg/mL
- Neutralization IC50, H9-HK97 [14]: 16.5 µg/mL
- Neutralization IC50, H2-MO06 [15]: 2.9 µg/mL
- Neutralization IC50, H1-TX91 [16]: 2.2 µg/mL
- Neutralization IC50, H1-NJ76 [17]: 2.6 µg/mL
- Neutralization IC50, H3-Vic75 [18]: 1.09 µg/mL
- Neutralization IC50, H3-LA87 [19]: 12.6 µg/mL
- Neutralization IC50, H7-NLD03 [20]: > 50 µg/mL
- Neutralization IC50, H3-Pa99 [21]: 25.8 µg/mL
